Measured values as given in US20250020645, “A4B1 BINDING APTAMERS” (University of Washington, published 2025).

Columns and labels:
[1] = biological target: T1, Integrin alpha4beta1 (VLA-4, CD49d/CD29), recombinant heterodimer (Homo sapiens, UniProt P13612;P05556 P13612:34-977,P05556:21-728); assay: BLI; 25 C, immobilised biotin-aptamer; details: tags: His-tag; ACROBiosystems IT1-H52W1; label: biotin, FAM or Cy5
Description: (§1) Bio-layer interferometry. BLI studies were performed on an Octet RED96 instrument (Sartorius of Göttingen, Germany) using streptavidin biosensors (Sartorius) as previously described (Cheng et al. (2022) J Am Chem Soc, 144, 13851-64). Briefly, wash buffer supplemented with 1% BSA, 0.1 mg/mL yeast tRNA, 0.1 mg/mL salmon sperm DNA, and 0.01% Tween-20 (Sigma) was used as the sample buffer for all steps. All steps were performed at 25° C. with sample agitation at 1000 rpm. Biosensors were allowed to equilibrate in buffer for at least 10 min before loading. For sensor loading, 50 nM biotinylated aptamers were loaded until a 0.5 nm threshold before performing rinse and baseline steps in buffer alone for 100 s each. […] Kinetic constants were calculated for datasets with several analyte concentrations by conducting a global fit of the association and dissociation curves to a 1:1 ligand binding model. The quality of each fit was evaluated using R2 and χ2 values, which are listed in Table 6 for the appropriate datasets along with the calculated kinetic constants.
(§2) Table 6 lists BLI measured affinity kinetics of immobilized HR7A1, HR7A1.Tr1, and HR7A1.Tr2 aptamer binding to recombinant α4β1 protein. […] Values were calculated by performing a global fit of the binding curve data in FIG. 2B to a 1:1 binding model. […] The goodness of fit was evaluated by a reduced chi-square (χ2) and a R2 value approaching 1.

[2] = biological target: T1, Integrin alpha4beta1 (VLA-4, …); assay: BLI; negative control aptamer, 100 nM protein; details: tags: His-tag; ACROBiosystems IT1-H52W1; label: biotin
Description: as §1, with “each. Afterwards, aptamer-loaded sensors were associated with His-tagged human α4β1 (IT1-H52W1, ACROBiosystems of Beijing, China) or His-tagged human α4β7 (IT7-H52W4, ACROBiosystems) at concentrations and times indicated in the figures and captions. Lastly, sensors were transferred to wells containing buffer alone for dissociation.” for “each.”, “constants. […]” for “constants.”

[3] = biological target: Integrin alpha4beta7, recombinant heterodimer (Homo sapiens, UniProt P13612;P26010 P13612:34-977,P26010:20-723); assay: BLI; negative control aptamer, 100 nM protein; details: tags: His-tag; ACROBiosystems IT7-H52W4; label: biotin
Chain of Integrin alpha4beta7, recombinant heterodimer (P13612 34-977, chain 1 of 2): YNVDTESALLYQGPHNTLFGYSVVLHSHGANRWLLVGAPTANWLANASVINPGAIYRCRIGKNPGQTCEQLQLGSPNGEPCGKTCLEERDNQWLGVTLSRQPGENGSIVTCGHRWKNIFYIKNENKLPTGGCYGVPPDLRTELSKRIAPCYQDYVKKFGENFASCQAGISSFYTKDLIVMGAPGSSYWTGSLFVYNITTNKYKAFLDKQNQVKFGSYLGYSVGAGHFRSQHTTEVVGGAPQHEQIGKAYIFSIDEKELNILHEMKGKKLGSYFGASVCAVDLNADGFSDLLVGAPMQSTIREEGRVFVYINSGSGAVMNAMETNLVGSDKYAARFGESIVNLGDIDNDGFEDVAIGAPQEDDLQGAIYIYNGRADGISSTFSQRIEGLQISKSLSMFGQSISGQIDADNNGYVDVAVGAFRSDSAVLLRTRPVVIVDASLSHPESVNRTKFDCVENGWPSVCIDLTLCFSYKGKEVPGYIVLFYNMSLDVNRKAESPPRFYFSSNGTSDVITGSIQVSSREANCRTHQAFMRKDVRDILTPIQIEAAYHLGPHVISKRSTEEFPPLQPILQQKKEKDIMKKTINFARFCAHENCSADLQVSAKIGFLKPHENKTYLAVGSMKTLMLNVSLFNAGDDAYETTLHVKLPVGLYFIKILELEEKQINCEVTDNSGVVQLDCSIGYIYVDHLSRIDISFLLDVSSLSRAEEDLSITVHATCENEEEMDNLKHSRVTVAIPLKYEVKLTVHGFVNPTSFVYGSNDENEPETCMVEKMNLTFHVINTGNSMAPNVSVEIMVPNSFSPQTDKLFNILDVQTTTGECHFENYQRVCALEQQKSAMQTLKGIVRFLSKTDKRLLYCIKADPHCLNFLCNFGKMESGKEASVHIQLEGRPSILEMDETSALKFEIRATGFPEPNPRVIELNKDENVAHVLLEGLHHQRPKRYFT
Chain of Integrin alpha4beta7, recombinant heterodimer (P26010 20-723, chain 2 of 2): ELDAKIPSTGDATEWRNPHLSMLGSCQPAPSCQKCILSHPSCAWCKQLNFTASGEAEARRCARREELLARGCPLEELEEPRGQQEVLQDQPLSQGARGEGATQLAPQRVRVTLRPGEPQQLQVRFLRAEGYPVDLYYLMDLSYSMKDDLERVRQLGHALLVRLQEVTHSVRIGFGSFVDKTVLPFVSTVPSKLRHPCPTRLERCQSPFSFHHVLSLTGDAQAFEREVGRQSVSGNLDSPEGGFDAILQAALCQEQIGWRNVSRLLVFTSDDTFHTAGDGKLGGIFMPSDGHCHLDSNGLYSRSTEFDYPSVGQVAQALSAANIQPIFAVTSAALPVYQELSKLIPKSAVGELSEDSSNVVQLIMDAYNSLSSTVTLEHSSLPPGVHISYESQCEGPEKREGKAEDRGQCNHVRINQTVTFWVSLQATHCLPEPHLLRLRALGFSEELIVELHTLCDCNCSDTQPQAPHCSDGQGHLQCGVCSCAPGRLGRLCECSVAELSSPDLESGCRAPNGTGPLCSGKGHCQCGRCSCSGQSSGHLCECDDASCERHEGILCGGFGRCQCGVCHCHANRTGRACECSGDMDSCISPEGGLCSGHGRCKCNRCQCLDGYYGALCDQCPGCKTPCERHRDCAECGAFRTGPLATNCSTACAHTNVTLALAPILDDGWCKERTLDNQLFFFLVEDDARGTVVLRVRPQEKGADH
Description: as §1, with “each. Afterwards, aptamer-loaded sensors were associated with His-tagged human α4β1 (IT1-H52W1, ACROBiosystems of Beijing, China) or His-tagged human α4β7 (IT7-H52W4, ACROBiosystems) at concentrations and times indicated in the figures and captions. Lastly, sensors were transferred to wells containing buffer alone for dissociation.” for “each.”, “constants. […]” for “constants.”

[4] = biological target: T2, Integrin alpha4beta1 on Jurkat cells (clone E6-1) (Homo sapiens, UniProt P13612;P05556 P13612:34-1032,P05556:21-798); assay: competition; 50% displacement of 20 nM Cy5-HR7A1 on Jurkat cells; details: tags: endogenous, ATCC cell line; label: Cy5
T2 sequence (P13612 34-1032, chain 1 of 2): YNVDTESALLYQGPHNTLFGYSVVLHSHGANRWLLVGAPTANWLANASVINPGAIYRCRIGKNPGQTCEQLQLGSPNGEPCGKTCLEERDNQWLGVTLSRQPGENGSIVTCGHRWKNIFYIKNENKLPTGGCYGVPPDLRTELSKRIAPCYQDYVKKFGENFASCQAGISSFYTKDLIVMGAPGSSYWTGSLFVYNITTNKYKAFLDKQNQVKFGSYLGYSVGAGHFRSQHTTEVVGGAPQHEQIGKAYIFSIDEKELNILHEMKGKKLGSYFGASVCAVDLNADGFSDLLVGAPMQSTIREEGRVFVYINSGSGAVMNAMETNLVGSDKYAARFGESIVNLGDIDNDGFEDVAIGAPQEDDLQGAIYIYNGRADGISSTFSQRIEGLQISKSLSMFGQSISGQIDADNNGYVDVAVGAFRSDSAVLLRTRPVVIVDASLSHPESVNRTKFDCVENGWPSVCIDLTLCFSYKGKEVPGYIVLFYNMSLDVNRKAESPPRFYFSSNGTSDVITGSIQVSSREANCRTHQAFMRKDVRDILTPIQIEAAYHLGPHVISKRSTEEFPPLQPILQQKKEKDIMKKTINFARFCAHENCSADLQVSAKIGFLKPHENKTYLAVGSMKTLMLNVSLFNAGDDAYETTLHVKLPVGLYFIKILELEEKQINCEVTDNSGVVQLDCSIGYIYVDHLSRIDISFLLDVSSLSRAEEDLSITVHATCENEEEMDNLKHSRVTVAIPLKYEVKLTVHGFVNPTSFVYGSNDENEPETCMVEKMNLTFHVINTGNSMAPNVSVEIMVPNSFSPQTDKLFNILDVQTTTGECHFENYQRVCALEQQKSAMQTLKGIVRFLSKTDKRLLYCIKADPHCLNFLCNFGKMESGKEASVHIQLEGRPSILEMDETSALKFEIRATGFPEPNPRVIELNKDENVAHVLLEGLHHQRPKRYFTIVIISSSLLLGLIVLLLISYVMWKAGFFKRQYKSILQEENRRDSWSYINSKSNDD
T2 sequence (P05556 21-798, chain 2 of 2): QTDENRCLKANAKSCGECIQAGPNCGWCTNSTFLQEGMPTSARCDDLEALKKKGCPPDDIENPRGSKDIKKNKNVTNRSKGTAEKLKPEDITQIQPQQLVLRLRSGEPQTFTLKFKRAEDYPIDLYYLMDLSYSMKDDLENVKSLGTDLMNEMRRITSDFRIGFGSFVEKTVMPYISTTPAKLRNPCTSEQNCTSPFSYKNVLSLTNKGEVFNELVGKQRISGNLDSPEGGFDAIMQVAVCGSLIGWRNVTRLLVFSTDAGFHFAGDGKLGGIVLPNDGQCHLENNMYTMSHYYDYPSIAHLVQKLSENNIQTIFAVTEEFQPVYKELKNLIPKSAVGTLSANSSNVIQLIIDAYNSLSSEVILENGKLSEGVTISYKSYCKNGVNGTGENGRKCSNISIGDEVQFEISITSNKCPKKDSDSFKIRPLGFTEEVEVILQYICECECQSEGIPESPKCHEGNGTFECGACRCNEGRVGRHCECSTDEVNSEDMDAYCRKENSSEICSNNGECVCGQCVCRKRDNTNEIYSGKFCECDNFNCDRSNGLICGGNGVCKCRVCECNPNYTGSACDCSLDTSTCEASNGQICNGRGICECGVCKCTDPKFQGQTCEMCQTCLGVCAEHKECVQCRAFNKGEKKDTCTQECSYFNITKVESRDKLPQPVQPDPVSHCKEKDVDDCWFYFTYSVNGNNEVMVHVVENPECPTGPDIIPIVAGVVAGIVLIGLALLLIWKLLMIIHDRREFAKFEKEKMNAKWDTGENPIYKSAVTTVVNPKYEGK
Description: (§3) Aptamer binding studies. While suspension H9, Jurkat, Raji, and K562 cells were harvested normally, adherent B16F10 cells were non-enzymatically dissociated with Versene (Gibco) prior to binding studies to prevent possible enzymatic cleavage of the α4β1 integrin that would affect aptamer binding. Once harvested, cells (2×10⁵) were pre-stained with Zombie Violet in DPBS for 15 min at room temperature, washed once with wash buffer supplemented with 1% BSA, and incubated with 100 μL folded FAM-labeled ssDNA pools or FAM/Cy5-labeled individual aptamers for 30 min at 4° C. in binding buffer at the indicated concentrations. For antibody co-staining, antibodies were added to the incubation with aptamers. For competitive binding studies, unique aptamers with different fluorescent labels were co-incubated on cells at different concentrations. Cells were then washed twice with 200 μL wash buffer 1% BSA to remove excess staining reagent. If biotinylated aptamers were used for primary staining, cells received a secondary stain with 100 μL fluorescently labeled streptavidin in wash buffer 1% BSA for 20 min at 4° C. and then washed twice as before. Lastly, stained cells were lightly fixed in 200 μL wash buffer 1% BSA with 0.1-0.5% perfluoroalkoxy alkane (PFA) before immediate analysis via flow cytometry as described above. […]

[5] = biological target: T1, Integrin alpha4beta1 (VLA-4, …); assay: BLI; 25 C, immobilised biotin-aptamer, DPBS Ca/Mg + 5 mM MgCl2 + BSA/tRNA/ssDNA; details: tags: His-tag; ACROBiosystems IT1-H52W1; label: biotin, FAM or Cy5; motif on top of a stem formed by flanking constant regions (predicted)
Description: as §1, §2

[6] = biological target: Integrin alpha4beta1 on B16F10 melanoma cells (Mus musculus, UniProt Q00651;P09055 Q00651:41-1039,P09055:21-798); assay: flow; apparent, 4 C; details: tags: endogenous, ATCC cell line; label: biotin, FAM or Cy5; motif on top of a stem formed by flanking constant regions (predicted)
Description: as §3, with “reagent.” for “reagent. If biotinylated aptamers were used for primary staining, cells received a secondary stain with 100 μL fluorescently labeled streptavidin in wash buffer 1% BSA for 20 min at 4° C. and then washed twice as before. Lastly, stained cells were lightly fixed in 200 μL wash buffer 1% BSA with 0.1-0.5% perfluoroalkoxy alkane (PFA) before immediate analysis via flow cytometry as described above.”
FIGS. 16A, 16B illustrate that HR7A1 binds mouse α4β1. […] (16B) Flow cytometry binding curves of Cy5-labeled CD8.A3t, HR7A1, and Sgc4f to B16F10 cells, as determined by MFI. […] KD values were calculated by averaging the individual regression values of the independent experiments. […]

[7] = biological target: T2, Integrin alpha4beta1 on Jurkat cells …; assay: competition; 50% displacement of 20 nM Cy5-Sgc4f on Jurkat cells; details: tags: endogenous, ATCC cell line; label: biotin, FAM or Cy5; motif on top of a stem formed by flanking constant regions (predicted)
Description: as §3

[8] = biological target: T2, Integrin alpha4beta1 on Jurkat cells …; assay: competition; 50% block of 100 nM VCAM-1 binding to Jurkat cells; details: tags: endogenous, ATCC cell line; label: biotin, FAM or Cy5
Description: CS1 peptide and VCAM-1 competition. For competition studies involving the CS1 peptide, a Tris-based wash buffer comprised of TBS (Fisher) supplemented with 4.5 g/L glucose, 5.5 mM MgCl², 0.9 mM CaCl², and 10 mM MnCl² was used instead of the normal DPBS-based wash buffer described above. Mn²⁺ has previously been described to support α4β1 binding to the fibronectin CS1 peptide (Masumoto and Hemler. (1993) Journal of Biological Chemistry, 268, 228-234), and as MnCl² precipitates in DPBS, a Tris-based wash buffer was thus required. Peptide stocks were prepared fresh in the Tris-based wash buffer at 20 mM prior to the competition studies and the exact concentration was measured using a QuantTag Biotin Quantification Kit (Vector Labs of Newark, CA). Live/dead and aptamer staining were carried out as described above, except cells were pre-blocked with varying concentrations of the SCR-b or CS1-b peptide in Tris-based wash buffer supplemented with 1% BSA (w/v) and 0.1 mg/mL yeast tRNA for 30 min at room temperature prior to spiking in aptamer and incubating for another 30 min at 4° C. As Tris can neutralize PFA, cells were resuspended in regular wash buffer 1% BSA with 0.5% PFA after washing before analyzing on the flow cytometer. […]

[9] = biological target: T2, Integrin alpha4beta1 on Jurkat cells …; assay: flow; apparent, 4 C; details: tags: endogenous, ATCC cell line
Description: (§4) Binding assay: Jurkat cells were washed with DPBS and incubated with Zombie Violet (1:500, 10⁷ cells/mL, BioLegend) in DPBS for live/dead staining for 15 min at room temperature. After live/dead staining, cells were washed with aptamer washed buffer supplemented with 1% BSA to quench the remaining dye and aliquoted in a 96-well plate at 1-2e5 cells/well. For aptamer staining, cells were incubated with annealed aptamers at the indicated concentrations in 100 μL binding buffer (aptamer wash buffer supplemented with 1% BSA and 0.1 mg/ml yeast RNA) for 20-30 min at 4° C. For binding analysis at different temperatures, aptamers (diluted in binding buffer) and cells were separately incubated at the indicated temperatures for 20 min for equilibration. The equilibrated aptamer solutions were then added to the cells and allowed to incubate for 20-30 min. After incubation, cells were washed 2 times with 200 μL aptamer wash buffer supplemented with 1% BSA, resuspended in 200 μL aptamer wash buffer supplemented with 1% BSA and 0.2% PFA, and analyzed on an Attune NxT cytometer.

[10] = biological target: T2, Integrin alpha4beta1 on Jurkat cells …; assay: flow; apparent, 4 C; better retained binding at 20 and 37 C than parent; details: tags: endogenous, ATCC cell line
Description: as §4

T1 sequence (P13612 34-977, chain 1 of 2): as the sequence (P13612 34-977, chain 1 of 2) above
T1 sequence (P05556 21-728, chain 2 of 2): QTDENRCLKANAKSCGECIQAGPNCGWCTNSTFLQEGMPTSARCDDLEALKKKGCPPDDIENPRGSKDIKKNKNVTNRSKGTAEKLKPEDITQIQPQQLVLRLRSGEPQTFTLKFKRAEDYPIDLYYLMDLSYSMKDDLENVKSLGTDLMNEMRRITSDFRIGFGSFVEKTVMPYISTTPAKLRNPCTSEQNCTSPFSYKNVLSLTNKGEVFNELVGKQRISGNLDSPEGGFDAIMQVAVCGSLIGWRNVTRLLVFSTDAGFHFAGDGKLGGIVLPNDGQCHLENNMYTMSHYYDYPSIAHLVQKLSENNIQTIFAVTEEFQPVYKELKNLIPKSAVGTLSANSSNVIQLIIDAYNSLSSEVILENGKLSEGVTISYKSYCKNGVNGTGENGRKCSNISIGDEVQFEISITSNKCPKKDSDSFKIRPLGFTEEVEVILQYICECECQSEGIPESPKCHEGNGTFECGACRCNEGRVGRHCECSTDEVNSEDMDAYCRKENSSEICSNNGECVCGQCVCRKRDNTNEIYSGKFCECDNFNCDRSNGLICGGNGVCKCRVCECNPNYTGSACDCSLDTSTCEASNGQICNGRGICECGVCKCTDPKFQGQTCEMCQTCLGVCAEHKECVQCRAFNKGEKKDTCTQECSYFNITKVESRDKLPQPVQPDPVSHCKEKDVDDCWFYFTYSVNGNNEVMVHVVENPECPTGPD

B1: HR7A1.Tr1 (ssDNA)
DNA: CAGCAAACCTGACCTCCTTACTAGATGCAACCCGACTACTAACGTCGTAAGAGAG
Kd [1]: 7.74 nM

B2: CD8.A3 (ssDNA)
DNA: ATCCAGAGTGACGCAGCAACAGAGGTGTAGAAGTACACGTGAACAAGCTTGAAATTGTCTCTGACAGAGGTGGACACGGTGGCTTAGT
binding result [2]: no binding
binding result [3]: no binding

B3: Sgc4f (ssDNA)
DNA: ATCACTTATAACGAGTGCGGATGCAAACGCCAGACAGGGGGACAGGAGATAAGTGA
IC50 [4]: > 3 fold excess

B4: HR7A1 (ssDNA)
DNA: ATCCAGAGTGACGCAGCAAACCTGACCTCCTTACTAGATGCAACCCGACTACTAACGTCGTAAGAGAGCCTGGACACGGTGGCTTAGT
Kd [5]: 6.28 nM
Kd [6]: 5.2 nM
IC50 [7]: 0.3 fold excess

CTCCTTACTAGATGCAACCCGACTACTAACGTCGTAAGAGAG (ssDNA) [HR7A1.Tr2]
IC50 [8]: 3 nM
Kd [1]: 9.89 nM

CGCGCCGTACTAGATGCAACCCGACTACTAACGTCGTACGAGCGCG (ssDNA, PS at three terminal linkages of each end: C*G*C*GCC...GAGC*G*C*G) [HR7A1.Tr2.S2E2.PS3]
Kd [9]: 3.2 nM

CGCGCCGTACTAGATGCAACCCGACTACTAACGTCGTACGAGCGCG (ssDNA, PS at * : C*G*CGCCGTA*CTA*GA*TGCA*A*CCCGACTACTAA*CGTCGTACGAGCG*C*G) [HR7A1.Tr2.S2E2.PSA]
Kd [10]: 9.6 nM
